Reference: US20210403591A1 (OSSIANIX, published 2021)
Changes are numbered by the printed parent chain. Blank lines part the entries; values can stand above or below the binder they belong to.

How the values were obtained:
[1] = molecular target: T1, purified mTfR1 mutant M2 (NAS) (mouse, UniProt Q62351 89-763); experiment: ELISA, coated purified mTfR-1 mutant M2 (NAS) against WT
T1 construct: also called G254A

[2] = molecular target: T2, purified mTfR1 mutant M1 (AGS) (mouse, UniProt Q62351 89-763); experiment: ELISA, coated purified mTfR-1
T2 construct: also called N253A

[3] = molecular target: T1, purified mTfR1 mutant M2 (NAS); experiment: ELISA, coated purified mTfR-1
[4] = molecular target: purified WT mTfR-1 (ELISA coat) (mouse, UniProt Q62351 89-763); experiment: ELISA, coated purified mTfR-1
[5] = molecular target: T3, purified mTfR1 mutant M3 (NGA) (mouse, UniProt Q62351 89-763); experiment: ELISA, coated purified mTfR-1
T3 construct: also called S255A

[6] = molecular target: T4, recombinant mouse TfR-1, His-tagged (Sino Biological 50741-M07H) (mouse, UniProt Q62351 89-763); experiment: SPR, His-captured TfR1
T4 construct: bought; His-tagged; also called mTfR1; mTfR-1
Procedure: (§1) Detailed binding kinetic analyses were performed to gain a better understanding of the relationship between affinity and brain penetration of the Clone H variants. Biacore surface plasmon resonance (SPR) analysis using immobilized mouse and human TfR-1 was performed for the clones (Table 5).
(§2) Binding kinetics of VNAR-Fcs was determined by surface plasmon resonance (Biacore T200, GE Healthcare). CMS chips were coated with anti-His antibodies (His Capture Kit, GE Healthcare) as recommended by the manufacturer and human or mouse his-tagged TfR1 (SinoBiological) at 10 ug/mL in HBS-EP+ (GE Healthcare) was captured at flow rate 10 ul/min (contact time 120 s). […] A flow cell without TfR1 captured served as a reference. Sensorgrams were fitted and kinetic constants were determined using Biacore T200 Evaluation software. Chips were regenerated in 10 mM Glycine-HCl, pH 1.5 (contact time: 120 s at flow rate 30 ul/min).

[7] = molecular target: T5, recombinant human TfR-1, His-tagged (Sino Biological 11020-H07H) (human, UniProt P02786 89-760); experiment: SPR, His-captured TfR1
T5 construct: bought; His-tagged; also called hTfR1; hTfR-1
Procedure: as §1, §2

T5 sequence (P02786 89-760 limits assumed): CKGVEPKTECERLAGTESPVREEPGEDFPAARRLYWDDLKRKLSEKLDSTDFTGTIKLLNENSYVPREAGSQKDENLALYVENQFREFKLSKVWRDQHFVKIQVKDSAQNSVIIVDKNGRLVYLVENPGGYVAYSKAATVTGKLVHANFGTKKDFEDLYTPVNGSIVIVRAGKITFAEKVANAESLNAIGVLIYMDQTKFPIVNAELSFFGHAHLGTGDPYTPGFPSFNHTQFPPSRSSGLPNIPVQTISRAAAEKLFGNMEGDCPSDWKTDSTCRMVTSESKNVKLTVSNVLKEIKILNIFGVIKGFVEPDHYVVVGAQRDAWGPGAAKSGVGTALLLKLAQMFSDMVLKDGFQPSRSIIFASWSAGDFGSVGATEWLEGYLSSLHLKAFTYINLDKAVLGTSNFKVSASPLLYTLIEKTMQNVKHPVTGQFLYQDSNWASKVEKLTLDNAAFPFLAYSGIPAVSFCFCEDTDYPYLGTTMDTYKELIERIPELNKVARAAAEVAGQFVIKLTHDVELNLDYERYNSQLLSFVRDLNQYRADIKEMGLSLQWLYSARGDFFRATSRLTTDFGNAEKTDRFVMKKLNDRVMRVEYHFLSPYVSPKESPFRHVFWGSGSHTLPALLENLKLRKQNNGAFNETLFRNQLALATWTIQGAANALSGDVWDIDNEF
T4 sequence (Q62351 89-763 limits assumed, stated change not applied): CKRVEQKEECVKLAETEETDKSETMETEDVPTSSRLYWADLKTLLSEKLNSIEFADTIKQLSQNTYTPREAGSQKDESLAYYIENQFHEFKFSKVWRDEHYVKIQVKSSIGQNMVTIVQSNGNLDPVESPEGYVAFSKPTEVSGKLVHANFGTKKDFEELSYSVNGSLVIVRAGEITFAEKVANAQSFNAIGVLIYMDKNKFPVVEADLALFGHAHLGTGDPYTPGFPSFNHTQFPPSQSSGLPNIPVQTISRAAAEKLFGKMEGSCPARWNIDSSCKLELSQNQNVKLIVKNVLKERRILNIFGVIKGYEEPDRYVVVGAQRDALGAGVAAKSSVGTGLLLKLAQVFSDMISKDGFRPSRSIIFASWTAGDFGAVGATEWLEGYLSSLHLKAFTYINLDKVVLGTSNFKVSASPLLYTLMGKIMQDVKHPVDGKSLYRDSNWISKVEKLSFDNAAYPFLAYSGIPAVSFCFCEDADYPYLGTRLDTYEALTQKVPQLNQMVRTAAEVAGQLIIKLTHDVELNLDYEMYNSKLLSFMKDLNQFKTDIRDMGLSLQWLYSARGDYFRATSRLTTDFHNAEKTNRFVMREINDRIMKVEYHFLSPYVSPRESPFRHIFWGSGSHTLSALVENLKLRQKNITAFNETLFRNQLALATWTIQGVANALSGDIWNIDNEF
Chain of purified WT mTfR-1 (ELISA coat) (Q62351 89-763): as the sequence (Q62351 89-763 limits assumed, stated change not applied) above
T2 sequence (Q62351 other isoform, or with tags, fused parts or gaps mutant): as the sequence (Q62351 89-763 limits assumed, stated change not applied) above, with N165A counted along it
T3 sequence (Q62351 other isoform, or with tags, fused parts or gaps mutant): as the sequence (Q62351 89-763 limits assumed, stated change not applied) above, with S167A counted along it
T1 sequence (Q62351 other isoform, or with tags, fused parts or gaps mutant): as the sequence (Q62351 89-763 limits assumed, stated change not applied) above, with G166A counted along it

B1: Clone H VNAR-hFc fusion (Fc fusion, not shown: a dimerising Fc or GST)
chain: ARVDQTPQTITKETGESLTINCVLRDSNCELSSTYWYRKKSGSTNEESISKGGRYVETVNSGSKSFSLRINDLVVEDSGTYRCNVQQFPSSSNGRYWCDVYGGGTAVTVNA
notes: bivalent VNAR-Fc
fold reduction of binding relative to WT mTfR-1 [1]: ~10 fold
EC50 [2]: 5.7 nM
EC50 [3]: 170 nM
EC50 [4]: 1.6 nM
EC50 [5]: 6.6 nM
Kd [6]: 2.54 nM
koff [6]: 9.11e-05 s⁻¹
kon [6]: 35800 M⁻¹ s⁻¹
Kd [7]: 6.11 nM
koff [7]: 0.00183 s⁻¹
kon [7]: 301000 M⁻¹ s⁻¹

B4: Clone H variant 7 VNAR-hFc (Fc fusion, not shown: a dimerising Fc or GST)
chain: B1 chain with S90T, S91R, S92T
Kd [6]: 15.6 nM
koff [6]: 0.000399 s⁻¹
kon [6]: 25600 M⁻¹ s⁻¹

B5: Clone H variant 8 VNAR-hFc (Fc fusion, not shown: a dimerising Fc or GST)
chain: B1 chain with S91R, S92H
Kd [6]: 8.4 nM
koff [6]: 0.000618 s⁻¹
kon [6]: 73600 M⁻¹ s⁻¹
Kd [7]: 25 nM
koff [7]: 0.000948 s⁻¹
kon [7]: 38000 M⁻¹ s⁻¹

B6: Clone H variant 4 VNAR-hFc (Fc fusion, not shown: a dimerising Fc or GST)
chain: B1 chain with S91R, S92F
Kd [6]: 12.4 nM
koff [6]: 0.000352 s⁻¹
kon [6]: 28300 M⁻¹ s⁻¹
Kd [7]: 15.9 nM
koff [7]: 0.00183 s⁻¹
kon [7]: 115000 M⁻¹ s⁻¹

B8: Clone H variant 2 VNAR-hFc (Fc fusion, not shown: a dimerising Fc or GST)
chain: B1 chain with S92W, N93P, G94F
Kd [6]: 25.2 nM
koff [6]: 0.000482 s⁻¹
kon [6]: 19100 M⁻¹ s⁻¹
Kd [7]: 3.77 nM
koff [7]: 0.000403 s⁻¹
kon [7]: 107000 M⁻¹ s⁻¹

The remaining binders from weak to strong by Kd [6], led by results:

Kd [6]: 5.59 nM
koff [6]: 0.000273 s⁻¹
kon [6]: 48900 M⁻¹ s⁻¹
Kd [7]: 4.71 nM
koff [7]: 0.000254 s⁻¹
kon [7]: 53900 M⁻¹ s⁻¹
B7: Clone H variant 3 VNAR-hFc (Fc fusion, not shown: a dimerising Fc or GST)
chain: B1 chain with S91W, S92G

fold reduction of binding relative to WT mTfR-1 [1]: ~10 fold
EC50 [2]: 3.3 nM
EC50 [3]: 22 nM
EC50 [4]: 2.5 nM
EC50 [5]: 4 nM
Kd [6]: 5.53 nM
koff [6]: 0.000279 s⁻¹
kon [6]: 50500 M⁻¹ s⁻¹
Kd [7]: 3.37 nM
koff [7]: 0.000269 s⁻¹
kon [7]: 79900 M⁻¹ s⁻¹
B3: Clone H variant 10 VNAR-hFc (Fc fusion, not shown: a dimerising Fc or GST)
chain: B1 chain with S91W, S92F
notes: also called clone H var; 10

fold reduction of binding relative to WT mTfR-1 [1]: ~10 fold
EC50 [2]: 1.4 nM
EC50 [3]: 4.7 nM
EC50 [4]: 0.69 nM
EC50 [5]: 0.99 nM
Kd [6]: 4.69 nM
koff [6]: 0.000195 s⁻¹
kon [6]: 41600 M⁻¹ s⁻¹
Kd [7]: 2.38 nM
koff [7]: 0.000121 s⁻¹
kon [7]: 50800 M⁻¹ s⁻¹
B2: Clone H variant 1 VNAR-hFc (Fc fusion, not shown: a dimerising Fc or GST)
chain: B1 chain with Q86V, F88W
notes: also called clone H var
